Laboratory results taken from paper PMC4479245, “The HDAC6/APOBEC3G complex regulates HIV-1 infectiveness by inducing Vif autophagic degradation” (Retrovirology, 2015).
Where a chain is given by its changes, count along the chain named. Names and notes keep the numbering of the source.

T1: HA-dm-HDAC6 (in vitro translated) (human, UniProt Q9UBN7 1-1215, H216A | H611A)
T1 construct: also called dead-mutant (dm) HDAC6; H216A/H611A; not shown: HA, N-terminal, kept
T1 sequence (looked up): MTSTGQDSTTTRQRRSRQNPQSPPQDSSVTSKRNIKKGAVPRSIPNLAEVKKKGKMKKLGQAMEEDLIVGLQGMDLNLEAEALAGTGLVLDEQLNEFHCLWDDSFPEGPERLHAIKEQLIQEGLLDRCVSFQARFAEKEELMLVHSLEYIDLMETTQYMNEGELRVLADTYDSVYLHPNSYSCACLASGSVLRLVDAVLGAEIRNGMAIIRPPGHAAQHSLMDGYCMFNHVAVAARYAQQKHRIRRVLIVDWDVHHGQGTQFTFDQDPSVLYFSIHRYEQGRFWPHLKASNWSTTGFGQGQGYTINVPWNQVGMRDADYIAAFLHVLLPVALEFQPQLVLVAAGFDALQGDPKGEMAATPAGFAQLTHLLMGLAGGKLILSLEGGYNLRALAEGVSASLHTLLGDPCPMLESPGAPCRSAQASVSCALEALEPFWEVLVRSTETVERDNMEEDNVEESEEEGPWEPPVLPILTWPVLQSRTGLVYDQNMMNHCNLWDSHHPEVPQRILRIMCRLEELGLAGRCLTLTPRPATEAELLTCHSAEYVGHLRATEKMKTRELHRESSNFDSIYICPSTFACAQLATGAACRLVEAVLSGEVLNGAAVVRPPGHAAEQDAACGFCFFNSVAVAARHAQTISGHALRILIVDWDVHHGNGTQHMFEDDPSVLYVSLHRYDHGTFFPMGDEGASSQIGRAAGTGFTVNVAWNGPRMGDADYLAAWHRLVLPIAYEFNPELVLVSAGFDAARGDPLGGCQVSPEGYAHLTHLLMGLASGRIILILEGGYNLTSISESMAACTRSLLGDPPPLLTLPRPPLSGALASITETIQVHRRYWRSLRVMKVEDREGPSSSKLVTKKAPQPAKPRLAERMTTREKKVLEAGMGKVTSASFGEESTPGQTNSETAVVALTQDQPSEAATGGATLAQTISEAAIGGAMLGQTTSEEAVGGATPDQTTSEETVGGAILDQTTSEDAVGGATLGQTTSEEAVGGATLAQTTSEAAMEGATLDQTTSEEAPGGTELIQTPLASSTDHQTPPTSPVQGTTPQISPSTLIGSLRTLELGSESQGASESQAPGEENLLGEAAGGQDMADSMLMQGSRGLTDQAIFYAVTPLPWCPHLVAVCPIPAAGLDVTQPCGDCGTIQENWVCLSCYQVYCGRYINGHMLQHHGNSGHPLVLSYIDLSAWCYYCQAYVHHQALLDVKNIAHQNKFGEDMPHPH

T2: HA-wt-HDAC6 (in vitro translated) (human, UniProt Q9UBN7 1-1215)
T2 construct: also called HA-HDAC6; source: in vitro translated (rabbit-reticulocytes system), purified on anti-HA agarose; not shown: HA, N-terminal, kept
T2 sequence (looked up): T1 sequence (looked up) with A216H, A611H

B1: GST-A3G (natural protein, human, UniProt Q9HC16 1-384, looked up)
chain: MKPHFRNTVERMYRDTFSYNFYNRPILSRRNTVWLCYEVKTKGPSRPPLDAKIFRGQVYSELKYHPEMRFFHWFSKWRKLHRDQEYEVTWYISWSPCTKCTRDMATFLAEDPKVTLTIFVARLYYFWDPDYQEALRSLCQKRDGPRATMKIMNYDEFQHCWSKFVYSQRELFEPWNNLPKYYILLHIMLGEILRHSMDPPTFTFNFNNEPWVRGRHETYLCYEVERMHNDTWVLLNQRRGFLCNQAPHKHGFLEGRHAELCFLDVIPFWKLDLDQDYRVTCFTSWSPCFSCAQEMAKFISKNKHVSLCIFTARIYDDQGRCQEGLRTLAEAGAKISIMTYSEFKHCWDTFVDHQGCPFQPWDGLDEHSQDLSGRLRAILQNQEN
notes: also called wt-A3G; GST-A3G (wt); source: E. coli BL21-DE3, purified on GSH-Sepharose
B2: GST-A3G-D128K (natural protein, human, UniProt Q9HC16 1-384, looked up)
chain: B1 chain with D128K
notes: source: E. coli BL21-DE3, purified on GSH-Sepharose
B3: GST-A3G-C97A (natural protein, human, UniProt Q9HC16 1-384, looked up)
chain: B1 chain with C97A
notes: as for B2
B4: GST-Vif (natural protein)
chain: not shown
notes: as for B2

molecular target: T1, HA-dm-HDAC6 (in vitro translated); assay: pull-down; 3 μg GST fusion protein immobilised on glutathione-Sepharose beads, 2 μg purified in vitro translated HA-tagged protein, overnight in RIPA buffer at 4°C, three washes; anti-HA blot; settings: both partners purified

| Binder | binding result |
| --- | --- |
| B1 | binds |
| B2 | binds |
| B3 | binds |

molecular target: T2, HA-wt-HDAC6 (in vitro translated); assay: as above; settings: both partners purified

| Binder | binding result |
| --- | --- |
| B1 | binds |
| B4 | binds |
| B2 | binds |
| B3 | binds |
